Results taken from patent publication US20150125424A1 (MICREOS B V, published 2015).

B1: OmpC of E. coli K-12 (receptor)
chain: AEVYNKDGNKLDLYGKVDGLHYFSDNKDVDGDQTYMRLGFKGETQVTDQLTGYGQWEYQIQGNSAENENNSWTRVAFAGLKFQDVGSFDYGRNYGVVYDVTSWTDVLPEFGGDTYGSDNFMQQRGNGFATYRNTDFFGLVDGLNFAVQYQGKNGNPSGEGFTSGVTNNGRDALRQNGDGVGGSITYDYEGFGIGGAISSSKRTDAQNTAAYIGNGDRAETYTGGLKYDANNIYLAAQYTQTYNATRVGSLGWANKAQNFEAVAQYQFDFGLRPSLAYLQSKGKNLGRGYDDEDILKYVDVGATYYFNKNMSTYVDYKINLLDDNQFTRDAGINTDNIVALGLVYQF
notes: whole, on cells; Presented on E. coli K-12 wt cells, or expressed in trans from pBAD18 Amp^r in E. coli K-12 ΔompC; also called ompC(K-12)

What was measured:
[1] = biological target: outer membrane protein C (OmpC) of S. Typhimurium DT7155 (S. Typhimurium DT7155); assay: control of competition in pull down assay; S. Tm. DT7155 wt cells pre-incubated with HGFP, then phage S16 added; value is remaining S16 adsorption
[2] = biological target: T1, Phage S16 (whole phage particle) (Phage S16, UniProt M1EAS5 1-638; M1EBB2 1-249); assay: pull down assay (phage adsorption) on E. coli K-12 wt and E. coli K-12 ΔompC::ompC(K-12) cells
T1 construct: The whole virion stood in the assay; All other virion proteins are left out; also called bacteriophage S16; CBS130493
T1 sequence 1: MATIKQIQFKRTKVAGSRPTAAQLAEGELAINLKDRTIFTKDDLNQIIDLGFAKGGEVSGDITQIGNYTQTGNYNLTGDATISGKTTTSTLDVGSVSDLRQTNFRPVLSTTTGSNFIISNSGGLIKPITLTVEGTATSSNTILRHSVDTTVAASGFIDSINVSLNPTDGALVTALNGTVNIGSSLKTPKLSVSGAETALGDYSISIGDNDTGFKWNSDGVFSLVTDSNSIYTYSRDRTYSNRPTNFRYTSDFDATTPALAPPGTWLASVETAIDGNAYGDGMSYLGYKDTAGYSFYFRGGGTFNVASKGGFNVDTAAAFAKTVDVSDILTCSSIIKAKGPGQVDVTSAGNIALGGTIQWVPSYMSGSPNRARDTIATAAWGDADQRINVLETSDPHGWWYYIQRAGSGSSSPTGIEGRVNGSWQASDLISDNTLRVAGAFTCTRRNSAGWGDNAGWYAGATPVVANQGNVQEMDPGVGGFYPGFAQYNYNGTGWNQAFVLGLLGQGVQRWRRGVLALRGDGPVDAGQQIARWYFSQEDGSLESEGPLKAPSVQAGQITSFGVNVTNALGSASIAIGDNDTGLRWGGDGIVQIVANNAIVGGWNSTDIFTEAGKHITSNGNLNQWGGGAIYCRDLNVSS
T1 sequence 2: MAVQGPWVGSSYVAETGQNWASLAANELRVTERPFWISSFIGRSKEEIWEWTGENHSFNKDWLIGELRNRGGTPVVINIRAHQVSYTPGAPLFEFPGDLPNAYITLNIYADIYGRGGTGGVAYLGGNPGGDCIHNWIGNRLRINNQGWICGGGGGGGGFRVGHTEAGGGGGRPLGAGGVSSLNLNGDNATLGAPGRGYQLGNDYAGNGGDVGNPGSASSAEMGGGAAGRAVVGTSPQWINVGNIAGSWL

Molecule	adsorption ratio of S16 after pre-incubation [1] [%]	binding result [2]
HGFP (6xHis-tagged GFP alone, control)	93.8	–
B1	–	no binding
